Substrate: CCCCSC1CCC(=O)O1
Assay: purified protein
Format: biochemical, Homo sapiens
Conditions: 50 mM Tris-HCl pH 8, 1 mM CaCl2, RT, no OX-LA, no vutiglabridin

B1: Recombinant PON1 (rePON1), carboxy-terminal hexahistidine tag (Homo sapiens) (protein)
chain: AKLIALTLLGMGLALFRNHQSSYQTRLNALREVQPVELPNCNLVKGIETGSEDLEILPNGLAFISSGLKYPGIKSFNPNSPGKILLMDLNEEDPTVLELGITGSKFDVSSFNPHGISTFTDEDNAMYLLVVNHPDAKSTVELFKFQEEEKSLLHLKTIRHKLLPNLNDIVAVGPEHFYGTNDHYFLDPYLQSWEMYLGLAWSYVVYYSPSEVRVVAEGFDFANGINISPDGKYVYIAELLAHKIHVYEKHANWTLTPLKSLDFNTLVDNISVDPETGDLWVGCHPNGMKIFFYDSENPPASEVLRIQNILTEEPKVTQVYAENGTVLQGSTVASVYKGKLLIGTVFHKALYCEL
notes: purified, C-terminal hexahistidine tag, expressed in CHO-K1 cells
B1 showed a Km of 155.78 µM and a Vmax of 92.3 µM/min.

Source: publication PMC10135725, “Vutiglabridin Modulates Paraoxonase 1 and Ameliorates Diet-Induced Obesity in Hyperlipidemic Mice” (Biomolecules, 2023)
